Values of other authors, collected in patent US9333241B2, “Thyroid-stimulating hormone receptor polypeptide agonist glycoforms to treat metabolic syndrome” (LipoLytics Therapeutics, LLC, priority 2005, dated 2016).

Experiments:
[1] = tested on: rodent models of the metabolic syndrome; conditions: recombinant glycoproteins produced in CHO cells
human TSHR = molecular target: T1, human TSHR (Homo sapiens, UniProt P16473); conditions: human TSHR transfected into CHO cells
T1 construct: expressed in transfected cells; host or cells: CHO cells
T1 sequence (P16473 21-764): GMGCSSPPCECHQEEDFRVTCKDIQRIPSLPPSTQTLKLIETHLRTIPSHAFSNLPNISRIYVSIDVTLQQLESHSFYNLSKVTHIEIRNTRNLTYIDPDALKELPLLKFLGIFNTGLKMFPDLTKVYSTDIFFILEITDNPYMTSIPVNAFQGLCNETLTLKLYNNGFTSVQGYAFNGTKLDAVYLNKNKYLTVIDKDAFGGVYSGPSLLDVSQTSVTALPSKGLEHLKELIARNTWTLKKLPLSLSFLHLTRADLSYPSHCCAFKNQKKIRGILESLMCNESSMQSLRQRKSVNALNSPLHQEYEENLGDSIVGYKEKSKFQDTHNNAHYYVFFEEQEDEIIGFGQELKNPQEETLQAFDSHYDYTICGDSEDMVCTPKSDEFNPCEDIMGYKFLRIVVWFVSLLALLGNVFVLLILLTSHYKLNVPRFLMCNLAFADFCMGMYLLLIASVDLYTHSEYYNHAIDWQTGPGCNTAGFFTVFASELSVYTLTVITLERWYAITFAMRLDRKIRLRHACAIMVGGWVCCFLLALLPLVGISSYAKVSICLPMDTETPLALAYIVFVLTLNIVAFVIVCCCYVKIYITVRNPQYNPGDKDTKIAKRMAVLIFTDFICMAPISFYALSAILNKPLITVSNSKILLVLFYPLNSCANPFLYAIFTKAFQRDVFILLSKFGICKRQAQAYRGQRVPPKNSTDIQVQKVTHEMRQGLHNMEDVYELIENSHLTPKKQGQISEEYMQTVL

activation of human TSHR (human TSHR): potently activates
B1: CGH: heterodimeric glycoprotein of GPHA2 and GPHB5 subunits, produced recombinantly in CHO cells (protein, listed as Homo sapiens)
alpha: QEAVIPGCHLHPFNVTVRSDRQGTCQGSHVAQACVGHCESSAFPSRYSVLVASGYRHNITSVSQCCTISGLKKVKVQLQCVGSRREELEIFTARACQCDMCRLSRY
beta: ASSGNLRTFVGCAVREFTFLAKKPGCRGLRITTDACWGRCETWEKPILEPPYIEAHHRVCTYNETKQVTVKLPNCAPGVDPFYTYPVAIRCDCGACSTATTECETI
effect of treatment in rodents [1]: improved glucose and lipid profiles and in reversed liver steatosis
